Measurements: patent US20150218244A1

Molecular target: IL-10 receptor (IL-10R) on freshly isolated primary blood monocytes (human) (UniProt Q13651)
Assay: cell-based or functional assay

IL-10 receptor (IL-10R) on freshly isolated primary blood monocytes (human), sequence (Q13651 22-578, chain 1 of 2): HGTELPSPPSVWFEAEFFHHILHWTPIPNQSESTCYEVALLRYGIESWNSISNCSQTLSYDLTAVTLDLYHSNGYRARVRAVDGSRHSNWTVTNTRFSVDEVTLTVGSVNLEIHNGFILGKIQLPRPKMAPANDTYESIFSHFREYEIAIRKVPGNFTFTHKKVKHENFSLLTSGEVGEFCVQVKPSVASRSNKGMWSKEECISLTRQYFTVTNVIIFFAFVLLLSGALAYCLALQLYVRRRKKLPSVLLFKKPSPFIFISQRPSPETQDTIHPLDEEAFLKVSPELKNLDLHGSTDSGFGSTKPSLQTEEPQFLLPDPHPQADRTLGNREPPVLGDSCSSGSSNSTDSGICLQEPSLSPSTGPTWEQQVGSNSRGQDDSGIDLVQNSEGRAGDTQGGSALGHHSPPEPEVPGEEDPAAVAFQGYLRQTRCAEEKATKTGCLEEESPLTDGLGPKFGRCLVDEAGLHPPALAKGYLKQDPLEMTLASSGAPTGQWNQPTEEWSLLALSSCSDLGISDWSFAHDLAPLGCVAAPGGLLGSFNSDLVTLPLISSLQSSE
IL-10 receptor (IL-10R) on freshly isolated primary blood monocytes (human), sequence (Q08334 20-325, chain 2 of 2, further chain): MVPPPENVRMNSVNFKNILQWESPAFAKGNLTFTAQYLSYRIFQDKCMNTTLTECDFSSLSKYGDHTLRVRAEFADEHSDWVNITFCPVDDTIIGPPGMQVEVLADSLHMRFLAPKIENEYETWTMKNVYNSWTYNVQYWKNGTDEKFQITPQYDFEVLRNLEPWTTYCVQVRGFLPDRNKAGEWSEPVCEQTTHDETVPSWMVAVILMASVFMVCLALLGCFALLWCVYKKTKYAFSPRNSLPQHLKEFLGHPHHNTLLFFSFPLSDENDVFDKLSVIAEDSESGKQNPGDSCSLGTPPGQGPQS

recombinant wild type human IL-10 (from UniProt P22301 19-178) (ligand)
EC50 [nM] pSTAT3 induction: 0.017 nM
EC50 [nM] pSTAT3 induction, Donor 1: 0.029 nM
EC50 [nM] pSTAT3 induction, Donor 2: 0.019 nM
EC50 [nM] pSTAT3 induction, Donor 3: 0.021 nM
